What is called koff is the first-order rate constant of dissociation. Lower therefore signals a long-lived complex.

We go through one molecule from publication PMC11503491.

The target of this experiment is SARS-CoV-2 RBD (RWT), wild-type Wuhan Hu-1 receptor-binding domain, residues 319-533 (SARS-CoV-2 Wuhan Hu-1). In words: BLI.

B1: COVA2-15 (class 2 RBD-directed antibody) (antibody, V domains shown)
VH: QVQLLESGGGLVQPGGSLRLSCAASGFTFSSYAMSWVRQAPGKGLEWASAISGSGGSTYYADSVEGRFTISRDNSKNTLYLQMNSLRAEDTAVYYCAKDTGYCGDDCYIKLIRGGPDYWGQGTLVTVSS
VL: DIVMTQSPLSLPVTLGQPASISCRSSQSLVYSDGNTFLNWFQQRPGQSPRRLIYQVSNRDSGVPDRFSGSGSGTDFTLKISRVEAEDVGVYYCMQGTHWPRTFGQGTKLEIK
Molecule B1 had a koff of 0.0025 s⁻¹.
